Usually stoichiometry N stands for a count of units in the complex or per binding partner.

In this assay the target is 2-cysteine (Cys) peroxiredoxin A, recombinant mature wild type, tag-free (Arabidopsis). Nature of the assay: LC/MS of the intact protein (deconvoluted masses); oxidised 2CPA with 0 to 19.2 mM GSH and NEM, 50 mM Tris pH 7.5, 25 °C; C4 column, acetonitrile gradient with 0.1% HCOOH; shows disulfide-linked dimers.

For “2-cysteine (Cys) peroxiredoxin A, recombinant mature wild type, tag-free (enzyme)”, the stoichiometry N was determined as 2.

(Values after article PMC10648297.)
